Assay results taken from paper PMC3070753, “Biochemical and Structural Properties of Cyanases from Arabidopsis thaliana and Oryza sativa” (PLoS ONE, 2011).

B1: His-tagged recombinant AtCYN (enzyme, Arabidopsis thaliana, UniProt O22683 1-168, looked up)
chain: MEAAKKQSVTNQLLAVKSASGKTFSQLAAETGLTNVYVAQLLRRQAQLKPDTVPKLKEALPALTDELIGDMMSPPWRSYDPNLIQEPTIYRLNEAVMHFGESIKEIINEDFGDGIMSAIDFYCSVDKIKGVDGNNRVVVTLDGKYLSHSEQRTENMVSRLNLKGGTSE
notes: cyanase (AtCYN) of Arabidopsis thaliana, 168 aa, NP_188991; cDNA amplified with primers from the start codon to the stop codon, cloned into pET15b; pET15b construct (BamH I and Xho I sites); calculated monomer with tag 21.9 kDa; also called His:AtCYN; source: E. coli BL21 (DE3), purified (Ni2+ chelating column, Superdex 200); copies: 10
B2: His-tagged recombinant OsCYN (enzyme, Oryza sativa, UniProt Q9FWK4 1-168, looked up)
chain: MEGGGGERAAGVVRRLMAAKAESRKSFSEIGEEAGLTNVYVAQLLRRQAQLKPETAPALRAAVPGLTDDLVALMMEPPFRSYHPDIVHEPAIYRLNEAVMHFGESIKEIINEEFGDGIMSAIDFYCSVDKVQGADGKDRVVVTFDGKYLPYSEQRSDHMMSRLTRKTS
notes: cyanase (OsCYN) of Oryza sativa (cv. Zhonghua 11), 168 aa, NP_001064827; cDNA amplified with primers from the start codon to the stop codon, cloned into pET15b; pET15b construct (BamH I and Xho I sites); calculated monomer with tag 22.0 kDa; also called His:OsCYN; source: E. coli BL21 (DE3), purified (Ni2+ chelating column, Superdex 200); copies: 10

How the values were obtained:
purified protein [1] = substrate: N#CO; test: purified protein; format: biochemical, Arabidopsis thaliana; conditions: 5 mM NaHCO3, pH 7.7, 27°C
[2] = target: the molecule itself; test: SEC; His-tagged proteins after Ni2+ affinity chromatography on a Superdex 200 10/300 GL column; molecular weight calculated against high molecular weight standards
purified protein [3] = substrate: O=C(O)O; test: purified protein; conditions: 5 mM KCNO, pH 7.7, 27°C
purified protein [4] = substrate: N#CO; test: purified protein; format: biochemical, Oryza sativa; conditions: 5 mM NaHCO3, pH 7.7, 27°C

Row | Protein | Km (purified protein [1]) [µM] | stoichiometry N [2] | Km (purified protein [3]) [µM] | Km (purified protein [4]) [µM]
1 | B1 | 940 | 10 | 790 | 
2 | B2 |  | 10 | 630 | 7380
